Measured values from patent US9371519B2, “Complex type sugar chain hydrolase” (National Institute of Advanced Industrial Science and …, priority 2011, dated 2016).

B1: Endo-Om: endo-β-N-acetylglucosaminidase from methylotrophic yeast Ogataea minuta IFO10746, amino acid sequence SEQ ID NO. 1, 772 amino acids (protein, listed as Ogataea minuta)
chain: MAQSQLLGGAVRPVFFDKLEELRRWHTQSANLSRESELDSLNVATEPFSSYERAQTGSGSRSSEPVPGDKEDPPIKLMVCHDFKGGYQDYEDAQPLGYFPHPTGSRYFLQYPQLIDQFVYFSHHRVTVPPVNWINFCHRNGIKCFGTVIFEGNASKDFEELDRLVSRDEKGDFVFVDALIKLAAHYGFDGYLLNIETTFSNTKIAADLEPFAEQLKSGLHCLDSKNELIWYDSYVFPANKVSYTNGVTESNYNFFSLSDAFFSNYWWNIKNLQENIKNVGVLGVQKKIYVGYDVWGRGTLVGKGGFDSSLACKMIAKFKSNVALFAPAWTYESLGPKDFNQNDARFWIGLFENESSISSTVPPHSSAVYKINESSFIFYTNFSSGEGNRFFSKGSEVYRKNWVNGSLQFDLPIDLHRKDKNGLQWALDKSDAFHGGACLEIKYSEIKDENGYQIFNNQMVSDFTLFNFTKECHFPTVNVKVTYKLNHKTKSTFKIKIKYIIERRFRSVQTVRTGYLTIPLLSTSGKWFTVEESFQINLQTSHEYIVLESAHVTYDEDRSADSFFRSYIVEDSAITSVIDNEEYEKLINSEIYNDDEDEDWILVPSDVSISSSESQSNDSKTQYLGRKLFGNKSTPKTRTLEGTAPLLRIGEFAIISANNYPSSNFLAVTSVKSIESSRLEGDSLVLLNWQVGEGHQKGVCYYIIYVNGAVVGLSVAPKFIYQDTELASENSASARSNYKKSGLGSSSDRKSKVRVDSVDKLGNVFTGSEVWV
B2: Endo-Pa: endo-β-N-acetylglucosaminidase from Pichia anomala ATCC36904, amino acid sequence SEQ ID NO. 9, 656 amino acids (protein, listed as Pichia anomala)
chain: MQHDHAAIKFEEDSISSQRFSSLDEVEKWYNTKNRSPLDDLRIPRESLSHYNRFRDNNDEIKVLVCHDFKGNYQEGEDENPLGYFPHSSGQHYFIQFPSLVDLFIFFSHYKIAVPPVSWINSLHRQGIPVLGTLIFEGTDVSESDKLLEKNENGDFKYLEILCELVRHYGFDGWLVNMESHFSSVAKAQDLLLFDEALRSTLHLKVPGSKLIWYDSLITQKNRVFYQNAVNEWNYDHFSTSDLFFTNYWWNEEDLKRNILNIGLQGVKQKLFVGVDIWGRGSRIGNGGFESGLAINYLKRYSTNVALFAPAWTYENFEEDQFLIKDRKFWIGDQTSDETGGSVATYVSHYTTPVYVKDQNVKFYTNFSVGEGTKYRVFAHTVFKNNWVNGNLQLPTPIIDNEKRIDIYYKESFNGGSSLKVTQRNSILNDGKSNILQLFSFKNDIHSNNLNVSVSFKYLSEIPLNSTFQLEIKFYIERRYRSVTRVRDGTFKLPLAFSNKNWKYIETSFALPRLQIREHFVLEGLQIRWVDNVDELSSSIGTSGDFTESWIIVPQNSDPNAVYELLIGDLLVEGIKTANGNIDAVTKLSRKITLDSRSILATWKDDTEVLYWIIYVNAKFLGIAHKSLWRVQRGDKLRVDVFTRSGKLVKGEDIFI
B3: Endo-Cp: endo-β-N-acetylglucosaminidase from Candida parapolymorpha DL-1 ATCC26012, amino acid sequence SEQ ID NO. 5, 745 amino acids (protein, listed as Candida parapolymorpha)
chain: MPRNTAKHSSLPQTNLPLSSLESSFFDSLDELANWERRIHEKSFELDELNKPTEKLAHYTRARQQSTSEDVKLLVCHDLKGGYQVNEDEDPLGYFPHPDGQHYFLQYPQLVDKFVYFSHHRVSIPPVSWINVCHRNAIKCLGTVIFEGNTYRDFEEADKLLTKQDGEYVFVRCLVALVEYFQFDGYLFNIETRFSNTRIASLLEPFLEQLRAELHVRNPSTELIWYDSYIYPENRVLYKNGVTEANYNFFSCCDSFFTNYWWNVKHLQDNIKNVGVLGSRLKVYAGYDVWGRGTMIGKGGYDSALACQMIKKYRSNVALFAPAWTYEYLARKDFTQNDTRFWIGLFDGESSMATTFKPYSSPLYKINDSNFVFYTNFGSGEGCAFYECGEKVYRDNWVNGSLQMEIPYAIHTRNKNGIQWTLSKEDSFHGGSCVEIKYNEVVDDKGYQVFNNQTINSFSLFSFVQDCSFPTVNVKLTYKLNHKTKSFFKLKIGYYIERRYRTVQKVRSGCLVVPLLSTNDQWFTIEEPFHVSLQNSHEFIVLDSATIFYEETEDPFMRAHVVEDQSTSSVIDNEEYEKLMNSEIYFDDEDEDWILVPSDISMESTDNGGRENHTWKVISNQIRKKHPKSHPSTSPVLKLGELAIINANDYPSDSFFKLMPVNSIDVRRWEGKILLIWKTNQDSVLYHLIFVDDVFQGISLVSKFVFEDQAVDEKSFKTKSGGSTKVRIDTVNRLGILVKGTDM
B4: Endo-Zr: endo-β-N-acetylglucosaminidase from Zygosaccharomyces rouxii ATCC2623, amino acid sequence SEQ ID NO. 13, 639 amino acids (protein, listed as Zygosaccharomyces rouxii)
chain: MKRINQVPGKPEITSLYFDDLNSLQRWFDKGFMDSRDLSNVPKERYSNYVKFEKDSIITIPNLSARKTEIIVCHDFKGGYQSGHDLYPNGQYGTESCKPYSLRYPEIVDKFVYFSHHCVTIPPSPWTNYLHRHSIPVLGTLILEHYPHNGELFKKNAKGEFLYVKYLVELCRKFHFEGWLINFETVFGNNSKQVIPFLRELTARVECEIYGGSVIWYDAFTTFSNKPSHQNEVNLFNYDAYENSSQFMTNYMWDSHNVGNSLRNVGALGMHSHVALGVDVWGRNMQVCRGGFESNIAIYYAKRFGTNAVIFAPGWTYENFGEDQFYEKDDIFWGNIKSTLQLDSYSDSQLSSWFVSESKKTRYFTTFFSTGSGNFFNLNGRRISNDNWVQLGLSTPFPVNSHSYLSFKDSFVGGSCLALPLSPMENGKLHLFRFEQFIKDQQKTSDSEIRVKLSYKSLGALPPVKLVIKCFVIRRGKRSKTILKVDDVSLVLPLSHSACQTAQGSTKWAVVEQIVPLPSLESRFLEEYYVEDAHLEWTMDNNHDEWLMVPERTEDLDCKLLIGSLCLEIGPHEDNNKRQIVRNGPQLSWQDNESSFMWLKLQDGKLDSVLFTPTTKVNGKQPTILECGRNGTLKFVVKK

Test: Hydrolysis activity for various PA-labeled sugar chains (HPLC peak area ratio, relative to M8A)
Assay type: biochemical
Conditions: 1 μM substrate, pH 5.3, 30° C.
Procedure: (§1) Using the Endo-Om partially purified enzyme solution of the present invention, hydrolysis activity for various PA-labeled commercially available sugar chains (TaKaRa-Bio Inc.) were measured, and the results are shown in the following (Table 1) together with the measurements in a literature on Endo-M (Non Patent Literature 6). The hydrolysis activity at that time was calculated from the peak area ratio between the PA-labeled sugar chain and its hydrolysate as substrates in HPLC, and the relative activity for the various sugar chains was calculated, with the hydrolysis activity for the sugar chain with an M8A structure set at 100%.
as §1, with “Endo-Cp” for “Endo-Om”, “2)” for “1)”
as §1, with “Endo-Pa” for “Endo-Om”, “3)” for “1)”
as §1, with “Endo-Zr” for “Endo-Om”, “4)” for “1)”
Comparison of hydrolysis activity for PA-labeled sugar chains having various structures was carried out as follows. A reaction solution containing a sodium acetate buffer at final concentration of 100 mM (pH 5.3), 0.5 M of NaCl, 1 μM of any of various PA-labeled sugar chains (TaKaRa-Bio Inc.), and an Endo-Om purified enzyme solution (total volume: 10 μl) was incubated at 30° C. for 3 to 12 hours, and heated at 95° C. for 5 minutes thereby stopping the enzyme reaction. The reaction solution was subjected to HPLC, and enzymatic activity was calculated from the peak area ratio between the PA-labeled sugar chain as the substrate and its hydrolysate. The column used herein was Cosmosil 5C18-ARII (2.0.150 mm, Nacalai Tesque, Inc.), the solvents were a 0.1 M ammonium acetate buffer (pH 4.0: solvent A), a 0.1 M ammonium acetate buffer (pH 4.0), and 0.5% 1-butanol (solvent B). Linear gradient elution was carried out using the solvent B: 5%-50% at a flow rate of 0.5 ml/min over a period of 24 minutes, and detection was carried out using a fluorescence detector (excitation wavelength 320 nm, and fluorescence wavelength 400 nm). The enzymatic activity was calculated with the activity hydrolyzing 1 μmol of the PA-labeled sugar chain in 1 minute under the above-described reaction conditions as 1 Unit, and the relative activity for various sugar chains were calculated with the hydrolysis activity for the sugar chain having an M8A structure as 100%. […]

[1] = substrate drawing 1/drawing 14/drawing 27/drawing 40 (M3B structure), M8A = 100%
[2] = substrate drawing 2/drawing 15/drawing 28/drawing 41 (M5A structure per text), M8A = 100%
[3] = substrate drawing 4/drawing 17/drawing 30/drawing 43 (high-mannose type M8A-PA sugar chain, set at 100%)
[4] = substrate drawing 5/drawing 18/drawing 31/drawing 44 (M9A structure per text), M8A = 100%
[5] = substrate drawing 6/drawing 19/drawing 32/drawing 45, M8A = 100%
[6] = substrate drawing 7/drawing 20/drawing 33/drawing 46, M8A = 100%
[7] = substrate drawing 8/drawing 21/drawing 34/drawing 47, M8A = 100%
[8] = substrate drawing 9/drawing 22/drawing 35/drawing 48, M8A = 100%

Molecule | Relative activity (hydrolysis activity for PA-labeled sugar chain) [1] [%] | Relative activity (hydrolysis activity for PA-labeled sugar chain) [2] [%] | Relative activity (hydrolysis activity for PA-labeled sugar chain) [3] [%] | Relative activity (hydrolysis activity for PA-labeled sugar chain) [4] [%] | Relative activity (hydrolysis activity for PA-labeled sugar chain) [5] [%] | Relative activity (hydrolysis activity for PA-labeled sugar chain) [6] [%] | Relative activity (hydrolysis activity for PA-labeled sugar chain) [7] [%] | Relative activity (hydrolysis activity for PA-labeled sugar chain) [8] [%]
B1 | 55.9 | 13.7 | 100 | 81.3 | 0.8 | 5.9 | 1.6 | 4.6
B2 | 152 | 94.3 | 100 | 115 | 4.0 | 35.4 | 36.3 | 40.5
B3 | 37.3 | 15.1 | 100 | 21.6 | 0.4 | 4.7 | 1.1 | 3.1
B4 | 85.7 | 39.8 | 100 | 33.4 | – | 13.2 | 17.3 | 30.0
